Assay results reported in article PMC6303335 (2018).

Biological target: E194, the type I interferon binding protein (IFNα/βBP) from ectromelia virus (ECTV) Naval strain (Ectromelia virus, strain Naval)
Test: SPR

B1: mouse IFNα subtype A (ligand)
chain: CDLPHTYNLRNKRALKVLAQMRRLPFLSCLKDRQDFGFPLEKVDNQQIQKAQAIPVLRDLTQQTLNLFTSKASSAAWNATLLDSFCNDLHQQLNDLQTCLMQQVGVQEPPLTQEDALLAVRKYFHRITVYLREKKHSPCAWEVVRAEVWRALSSSVNLLPRLSEEKE
koff: 0.000331 s⁻¹
